For eight molecules, binding result and Kd results are on record in US20070117770, “Human ribosomal DNA (rDNA) and ribosomal RNA (rRNA) nucleic acids and uses thereof” (Cylene Pharmaceuticals, Inc., published 2007).

Series [1] has as its target T1, Nucleolin (MBP fusion, lacking N-terminal acidic stretches domain) (Homo sapiens, UniProt P19338 P19338:284-710). Nature of the series: EMSA. To be noted: label: 32P; G4 antiparallel. As for the experimental part:
The following assays assessed effects of compounds on interactions between nucleolin and nucleic acid ligands capable of forming quadruplex (QP) and hairpin (HP) secondary structures. Nucleic acid ligands tested were a cMyc QP DNA having nucleotide sequence 5′-[…]-3′ (SEQ ID NO: 176) and a HP pre-rRNA region to which nucleolin binds, having the sequence 5′-[…]-3′ (SEQ ID NO: 177). In the assays, recombinant nucleolin (˜250 nM), which was fused to maltose binding protein and had the sequence under accession number NM_{—}005381 without the N-terminal acidic stretches domain, was incubated with each of the two ³²P-labeled nucleic acid ligands (10 or 250 nM). Nucleolin and the nucleic acid ligand were incubated in the presence or absence of a test compound of Formula A-1, B-1, C-6 or C-7 in an incubation buffer (12.5 mM Tris, pH 7.6, 60 mM KCl, 1 mM MgCl₂, 0.1 mM EDTA, 1 mM DTT, 5% glycerol, 0.1 mg/ml BSA) for 30 minutes at room temperature. […]
The assay also was conducted using nucleic acid ligands derived from human ribosomal DNA. […] It was determined from these assays that compound A-1, but not Actinomycin D, interfered with nucleolin/nucleic acid ligand interactions. […]
(A gel shift assay detects complexes by their altered migration in electrophoresis.)

In series [2] the target is T1, Nucleolin (MBP fusion, lacking …). In words: EMSA; complex disrupted by compounds A-1, B-1, C-6, C-7; 60 mM KCl, 1 mM MgCl2, room temperature. To be noted: label: 32P; G4. As for the experimental part: The following assays assessed effects of compounds on interactions between nucleolin and nucleic acid ligands capable of forming quadruplex (QP) and hairpin (HP) secondary structures. Nucleic acid ligands tested were a cMyc QP DNA having nucleotide sequence 5′-[…]-3′ (SEQ ID NO: 176) and a HP pre-rRNA region to which nucleolin binds, having the sequence 5′-[…]-3′ (SEQ ID NO: 177). In the assays, recombinant nucleolin (˜250 nM), which was fused to maltose binding protein and had the sequence under accession number NM_{—}005381 without the N-terminal acidic stretches domain, was incubated with each of the two ³²P-labeled nucleic acid ligands (10 or 250 nM). Nucleolin and the nucleic acid ligand were incubated in the presence or absence of a test compound of Formula A-1, B-1, C-6 or C-7 in an incubation buffer (12.5 mM Tris, pH 7.6, 60 mM KCl, 1 mM MgCl₂, 0.1 mM EDTA, 1 mM DTT, 5% glycerol, 0.1 mg/ml BSA) for 30 minutes at room temperature. Structures for A-1 and B-1 are shown above and structures for C-6 and C-7 are shown hereafter: The resulting complexes were separated on a 6% DNA retardation gel using 0.5× TBE with 20 mM KCl as a running buffer (i.e., electrophoresis mobility shift assay (EMSA)).

For series [3] the target is unchanged. In words: filter; Bmax 13%; 60 mM KCl, 1 mM MgCl2. To be noted: label: 32P; G4 antiparallel. As for the experimental part: (§1) The assay also was conducted in a filter-binding format. In such forms of the assay, 0.2 nM of ³²P-labeled quadruplexes were incubated in 50 uL of the binding buffer (12.5 mM Tris-HCl, pH 7.6, 60 mM KCl, 1 mM MgCl2, 0.1 mM EDTA, 5% glycerol, 0.1 mg/mL BSA) for 10 min at 85 C and then for 10 min on ice and mixed with another 50 uL of binding buffer containing increasing amounts of recombinant protein Nucleolin. The protein-quadruplex mixtures were incubated for 30 min at ambient temperature and filtered through mixed cellulose ester membrane filters (Millipore) with gentle suction. The filters were washed twice with […] of binding buffer, dried and OptiPhase ‘SuperMix’ scintillation cocktail (Perkin Elmer) was added to the wells. Radioactivity was assayed with MicroBeta scintillation counter (Perkin Elmer). Binding curves were constructed and apparent Kd's and Bmax's for the complexes were calculated using the GraphPad Prizm software program (GraphPad Software). […]

For series [4] the target is unchanged. Nature of the series: filter; Bmax 51%; 60 mM KCl, 1 mM MgCl2. Conditions: label: 32P; G4 parallel. The protocol: as §1
The target is the same in series [5]. Nature of the series: filter; Bmax 60%; 60 mM KCl, 1 mM MgCl2. To be noted: label: 32P; G4 mixed. The protocol:
as §1

Series [6] shares this target. Nature of the series: filter; Bmax 68%; 60 mM KCl, 1 mM MgCl2. Conditions: label: 32P; G4 parallel. The protocol:
as §1

Series [7] has the same target. In words: EMSA; random single-stranded control. Conditions: label: 32P, no quadruplex. The protocol: In the assays, recombinant nucleolin (˜250 nM), which was fused to maltose binding protein and had the sequence under accession number NM_{—}005381 without the N-terminal acidic stretches domain, was incubated with each of the two ³²P-labeled nucleic acid ligands (10 or 250 nM). Nucleolin and the nucleic acid ligand were incubated in the presence or absence of a test compound of Formula A-1, B-1, C-6 or C-7 in an incubation buffer (12.5 mM Tris, pH 7.6, 60 mM KCl, 1 mM MgCl₂, 0.1 mM EDTA, 1 mM DTT, 5% glycerol, 0.1 mg/ml BSA) for 30 minutes at room temperature. Structures for A-1 and B-1 are shown above and structures for C-6 and C-7 are shown hereafter: The resulting complexes were separated on a 6% DNA retardation gel using 0.5× TBE with 20 mM KCl as a running buffer (i.e., electrophoresis mobility shift assay (EMSA)).
The assay also was conducted using nucleic acid ligands derived from human ribosomal DNA. Sequences of these nucleic acids are shown in the preceding example. It was determined from these assays that compound A-1, but not Actinomycin D, interfered with nucleolin/nucleic acid ligand interactions. […] A “+” represents the weakest nucleolin affinity and least interference by compound A-1 and a “++++” represents the strongest nucleolin affinity and greatest interference by compound A-1.

Series [8] shares this target. In words: filter; Bmax 100%; 62-mer printed here, Example 6 table prints a shorter sequence under the same name. To be noted: label: 32P; G4 mixed. The protocol: as §1

T1 sequence (P19338 284-710, one chain of several): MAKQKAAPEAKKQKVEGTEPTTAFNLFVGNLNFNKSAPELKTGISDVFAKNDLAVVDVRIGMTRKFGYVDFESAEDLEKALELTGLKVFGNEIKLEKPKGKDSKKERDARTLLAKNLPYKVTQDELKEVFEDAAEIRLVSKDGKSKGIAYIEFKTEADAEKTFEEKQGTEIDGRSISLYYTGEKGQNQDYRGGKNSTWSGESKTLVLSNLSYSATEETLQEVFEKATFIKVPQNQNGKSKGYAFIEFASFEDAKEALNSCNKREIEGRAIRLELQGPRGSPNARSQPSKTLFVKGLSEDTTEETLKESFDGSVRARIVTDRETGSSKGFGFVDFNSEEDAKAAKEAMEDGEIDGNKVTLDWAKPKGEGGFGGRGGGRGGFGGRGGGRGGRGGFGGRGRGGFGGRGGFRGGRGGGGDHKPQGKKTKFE

Consider GGGCTGGGTCGGTCGGGCTGGGG (structured_DNA) [10816NT], for which the binding result in series [1] is on record as “no binding”. Consider TGGGGAGGGTGGGGAGGGTGGGGAAGG (structured_DNA) [cMyc QP DNA], for which, in series [2], the binding result is “binds”. As usually defined, the Kd is a measure of binding affinity in units of concentration. On to GGGAGGGCGCGCGGGTCGGGG (structured_DNA) [8749NT], for which, in series [3], the Kd was 1.9 nM. Turning to GGGCGGGGGGGGCGGGGGG (structured_DNA) [6534NT], the affinity in series [4], expressed as Kd, was 1.1 nM.

In series [5], GGGTCCGGAAGGGGAAGGGTGCCGGCGGGGAGAGAGGGTCGGGGG (structured_DNA) [7253NT] displayed a Kd of 0.4 nM. The molecule GGGTGGCGGGGGGGAGAGGGGGG (structured_DNA) [6960NT] came in with a Kd in series [6] of 0.5 nM. Take GTCGTAACGTCGATCAGTTTACGACAT (ssDNA) [RND27]: in series [7], the binding result was “no binding”.

B1: 8511NT (structured_DNA)
DNA: GGGGGCGGGCTCCGGCGGGTGCGGGGGTGGGCGGGCGGGGCCGGGGGTGGGGTCGGCGGGGG
In series [8], B1 showed a Kd of 0.6 nM.
